Results from PMC2276513.
Non-standard residues stand in square brackets, D forms with d. No end group written: not given here. *: point of attachment. Acm = CC(=O)NC*

Target: IGF-I receptor (human (endogenous in HT-29)) (UniProt P08069)
Sequence of UniProt P08069 (P08069 31-1367): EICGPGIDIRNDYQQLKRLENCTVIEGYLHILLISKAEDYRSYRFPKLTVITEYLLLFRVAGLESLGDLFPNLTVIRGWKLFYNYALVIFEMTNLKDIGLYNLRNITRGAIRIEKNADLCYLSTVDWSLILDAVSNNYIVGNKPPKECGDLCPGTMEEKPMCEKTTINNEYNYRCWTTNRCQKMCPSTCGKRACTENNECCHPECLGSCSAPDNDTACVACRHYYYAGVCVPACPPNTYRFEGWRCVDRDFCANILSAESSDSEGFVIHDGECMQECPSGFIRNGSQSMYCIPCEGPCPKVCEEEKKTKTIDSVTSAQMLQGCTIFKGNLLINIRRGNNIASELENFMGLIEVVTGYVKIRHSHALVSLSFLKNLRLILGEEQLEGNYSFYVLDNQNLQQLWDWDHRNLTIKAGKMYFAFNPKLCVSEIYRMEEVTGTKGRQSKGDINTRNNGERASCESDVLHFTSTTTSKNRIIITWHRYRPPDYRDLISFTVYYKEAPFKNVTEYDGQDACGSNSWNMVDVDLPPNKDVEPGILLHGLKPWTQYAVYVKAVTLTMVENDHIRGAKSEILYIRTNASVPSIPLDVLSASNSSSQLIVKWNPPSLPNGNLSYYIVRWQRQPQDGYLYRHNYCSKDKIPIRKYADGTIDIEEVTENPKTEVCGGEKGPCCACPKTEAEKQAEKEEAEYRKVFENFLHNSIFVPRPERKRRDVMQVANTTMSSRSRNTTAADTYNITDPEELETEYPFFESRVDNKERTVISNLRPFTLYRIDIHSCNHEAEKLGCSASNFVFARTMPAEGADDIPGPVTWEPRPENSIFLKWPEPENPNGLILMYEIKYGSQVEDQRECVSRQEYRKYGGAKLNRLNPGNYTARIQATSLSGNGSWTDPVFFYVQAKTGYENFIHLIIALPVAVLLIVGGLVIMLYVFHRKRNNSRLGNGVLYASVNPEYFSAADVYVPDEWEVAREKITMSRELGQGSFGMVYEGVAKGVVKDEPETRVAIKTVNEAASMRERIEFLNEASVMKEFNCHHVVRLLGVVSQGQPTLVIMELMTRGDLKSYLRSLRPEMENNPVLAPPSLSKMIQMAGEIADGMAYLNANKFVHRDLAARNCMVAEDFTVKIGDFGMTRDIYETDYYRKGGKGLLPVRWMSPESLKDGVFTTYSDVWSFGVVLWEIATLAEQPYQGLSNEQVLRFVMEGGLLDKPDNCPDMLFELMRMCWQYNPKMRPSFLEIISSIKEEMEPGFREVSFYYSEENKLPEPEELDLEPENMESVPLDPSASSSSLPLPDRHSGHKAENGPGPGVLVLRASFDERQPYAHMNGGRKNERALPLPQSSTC

B1: IGF-I D domain analogue peptide (M1557) (peptide)
peptide: [dY]C(Acm)[dA][dP][dL][dK][dP][dA][dK][dS][dA]-NH2
modifications: N-terminus assumed
SMILES: CC(=O)NCSC[C@H](NC(=O)[C@H](N)Cc1ccc(O)cc1)C(=O)N[C@H](C)C(=O)N1CCC[C@@H]1C(=O)N[C@H](CC(C)C)C(=O)N[C@H](CCCCN)C(=O)N1CCC[C@@H]1C(=O)N[C@H](C)C(=O)N[C@H](CCCCN)C(=O)N[C@H](CO)C(=O)N[C@H](C)C(N)=O
- proliferation of HT-29 cells (modified Alamar Blue assay), 48 h with 0.001-1 uM M1557 in medium with 10% FBS: percent inhibition: 14 to 15%
